Numbering of substitutions follows the chain as printed.
B1: mAb10964 (antibody, V domains shown)
VH: QVQLQESGPGLVKPSETLSLTCTVSGGSINNYYWIWIRQPPGKGLEWIGYIYHSGSTNYNPSLKSRVTISVDTSKNQFSLKVSSVTAADTAVYYCANMVRGVYEDDYWGQGTLVTVSS
VL: DIQMTQSPSSLSASVGDRVTITCRASQSISNYLNWYQQKPGKAPKLLIFAASSLRSGVPSRFSGSGSGTDFTLTISSLHPEDFATYYCQQNYNTPLTFGPGTKVDIKR
B2: mAb10966 (antibody, V domains shown)
VH: EVQLVESGGGLVQPGGSLRLSCAASGLTVSSNYMSWVRQAPGKGLEWVSVIYSGGSTFYADSVKGRFTISRDNSKNTLYLQMNSLRPEDTAVYYCAREGRIAATGYGMDVWGQGTTVTVSS
VL: not shown
B3: mAb10915 (antibody, V domains shown)
VH: EVQLVESGGGLVQPGGSLRLSCAASGFTVSSNYMNWVRQAPGKGLEWVSVIYSGGSTFYADSVKGRFTISRHNSKNTLYLQMNSLRPEDTAVYYCARDLGGYFDYWGQGTLVTVSS
VL: not shown
B4: mAb10971 (antibody, V domains shown)
VH: EVQLVESGGGLIQPGGSLRLSCAASGVTVSSNYMSWVRQAPGKGLEWVSVIYSGGSTFYSDSVKGRFSISRDNSKNTLYLQMNSLRAEDTAVYYCARDLYYYGMDVWGQGTTVTVSS
VL: DIQLTQSPSFLSASVGDRVTITCRASQGISTYLAWYQQKPGKAPKLLIYAASTLQSGVPSRFSGSGSGTEFTLTISSLQPEDFATYYCQQLDSYPGLTFGGGTKVEIKR
B5: mAb10956 (antibody, V domains shown)
VH: B4 VH with I12V, V27L, S60A, S68T, Y100I, Y101K
VL: not shown
B6: mAb10982 (antibody, V domains shown)
VH: EVQLVESGGGLVQPGGSLRLSCAASGLTVSSNYMSWVRQAPGKGLEWVSVIYSGGTTYYADSVKGRFTISRHNSKNTLSLQMNSLRAEDTAVYYCARGEGANYYGMDVWGQGTTVTVSS
VL: QSVLTQPPSVSGAPGQRVTISCTGSSSNIGTGYDVHWYQQLPGTAPKLLIYGNSNRPSGVPDRFSGSKSGTSASLAITGLQAEDEADYYCQSYDSSLSGYVVFGGGTKLTVLG
B7: mAb10921 (antibody, V domains shown)
VH: EVQLVESGGGLVQPGGSLRLSCAASGITVSSNYMSWVRQAPGKGLEWVSVIYSGGSTFYADSVKGRFTISRHNSKNTLYLQMNSLRAEDTAVYYCARERNFDAFDIWGQGTMVTVSS
VL: DIQMTQSPSSVSASVGDRVTITCRASQGISSWLAWYQQKPGKAPKLLIYAASSLQSGVPSRFSGSGSGTDFTLTISSLQPEDFATYYCQQANSFPLFTFGPGTKVDIKR
B8: mAb10957 (antibody, V domains shown)
VH: B4 VH with I12V, S60A, S68T, Y79F, A87I, Y100G, Y101P
VL: B4 VL with T31S, E70Q, T72I, D92N, L97F, G101P, E106D
B9: mAb10965 (antibody, V domains shown)
VH: EVQLVESGGGLIQPGGSLRLSCAASVFTVSYNYMSWVRQAPGKGLEWVSVIYSGGSTYYADSVKGRFTISRDNSKNTLYLQMNSLRAEDTAVYYCARALPGWGGSFEYFDYWGQGTLVTVSS
VL: not shown
B10: mAb10935 (antibody, V domains shown)
VH: EVQLVESGGGLVQPGGSLRLSCAASGFTVSSNYMSWVRQAPGKGLEWVSLIYSGGSTYYADSVKGRFTISRHNSKNTLYLQMNSLRSEDTAVYYCARVPLGDYYYGMDVWGQGTTVTVSS
VL: DIQMTQSPSSLSASVGDRVTITCQASQDINKYLNWYQQKPGKAPKLLIYDASNLETGVPSRFSGSGSGTDFTFTISSLQPEDIATYYCQQSDNLPLTFGGGTKVEIKR
B11: mAb10967 (antibody, V domains shown)
VH: EVQLVESGGGLVQPGGSLRLSCAASGFTVSSNYMSWVRQAPGKGLEWVSVIYPGGSTFYADSVKGRFTISRDNSKNTLYLQMNSLRAEDTAVYYCARDQRDFAWGQGTLVTVSS
VL: B10 VL with N30S, K31N, S77G, S91Y, L96P, G100Q, K103R, V104L
B12: mAb10933 (antibody, V domains shown)
VH: QVQLVESGGGLVKPGGSLRLSCAASGFTFSDYYMSWIRQAPGKGLEWVSYITYSGSTIYYADSVKGRFTISRDNAKSSLYLQMNSLRAEDTAVYYCARDRGTTMVPFDYWGQGTLVTVSS
VL: B10 VL with N30T, K31N, D50A, S77G, S91Y
B13: mAb10954 (antibody, V domains shown)
VH: EVQLVESGGGLVQPGGSLRLSCAASGITVSSNYMSWVRQAPGKGLEWVSLIYSGGSTYYADSVKGRFTISRDNSKNTLYLQMNSLRVEDTAVYYCARDHGMAAAGYNYWGQGTLVTVSS
VL: B10 VL with S76N, I83F, Y87F, S91Y, L96P, T97A, G100Q
B14: mAb10955 (antibody, V domains shown)
VH: EVQLVESGGGLVQPGGSLRVSCAASGFTVSRNYMSWVRQAPGKGLEWVSVIYSGGSTFYADSVKGRFTISRDNSKNTLYLQMNSLRAEDTAIYYCARYIPRFDPWGQGTLVTVSS
VL: B10 VL with N30S, K31N, Y36F, K42R, S91Y, L96I, G100Q, K103R, V104L

Assays:
Experiment in all cases: Luminex, supernatant
[1] = biological target: SARS-CoV-2 Spike Protein (RBD)(R319-F541).hFc (SARS-CoV-2)
[2] = biological target: SARS-CoV-2 Spike Protein (RBD)(R319-F541).mFc (SARS-CoV-2)
[3] = biological target: Human SARS Coronavirus Spike S1 Subunit Protein (His Tag) (Sino 40150-V08B1) (Human SARS Coronavirus, UniProt P59594 14-667)
[4] = biological target: T1, MERS-CoV Spike Protein S2 (aa 726-1296, His Tag) (Sino 40070-[change]) (MERS-CoV, UniProt K9N5Q8 726-1296)
T1 sequence: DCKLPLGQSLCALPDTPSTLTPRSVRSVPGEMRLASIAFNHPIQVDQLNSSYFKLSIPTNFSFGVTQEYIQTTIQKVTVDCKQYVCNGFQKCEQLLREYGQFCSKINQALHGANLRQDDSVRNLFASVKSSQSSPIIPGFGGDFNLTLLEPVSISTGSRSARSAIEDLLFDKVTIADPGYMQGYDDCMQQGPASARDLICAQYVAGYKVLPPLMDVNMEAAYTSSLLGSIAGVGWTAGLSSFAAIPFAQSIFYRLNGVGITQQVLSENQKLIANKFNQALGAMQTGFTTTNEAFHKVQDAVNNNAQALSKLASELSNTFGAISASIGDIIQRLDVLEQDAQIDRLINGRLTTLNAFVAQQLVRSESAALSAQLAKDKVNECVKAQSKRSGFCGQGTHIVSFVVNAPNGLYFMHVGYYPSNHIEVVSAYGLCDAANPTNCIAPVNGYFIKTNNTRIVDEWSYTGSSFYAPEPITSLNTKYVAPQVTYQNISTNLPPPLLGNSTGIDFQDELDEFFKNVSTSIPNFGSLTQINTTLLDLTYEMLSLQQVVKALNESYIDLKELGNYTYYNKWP

[5] = biological target: T2, MERS-CoV Spike Protein (ECD, aa 1-1297, His Tag) (Sino 40069-[change]) (MERS-CoV, UniProt K9N5Q8 18-1297)
T2 sequence: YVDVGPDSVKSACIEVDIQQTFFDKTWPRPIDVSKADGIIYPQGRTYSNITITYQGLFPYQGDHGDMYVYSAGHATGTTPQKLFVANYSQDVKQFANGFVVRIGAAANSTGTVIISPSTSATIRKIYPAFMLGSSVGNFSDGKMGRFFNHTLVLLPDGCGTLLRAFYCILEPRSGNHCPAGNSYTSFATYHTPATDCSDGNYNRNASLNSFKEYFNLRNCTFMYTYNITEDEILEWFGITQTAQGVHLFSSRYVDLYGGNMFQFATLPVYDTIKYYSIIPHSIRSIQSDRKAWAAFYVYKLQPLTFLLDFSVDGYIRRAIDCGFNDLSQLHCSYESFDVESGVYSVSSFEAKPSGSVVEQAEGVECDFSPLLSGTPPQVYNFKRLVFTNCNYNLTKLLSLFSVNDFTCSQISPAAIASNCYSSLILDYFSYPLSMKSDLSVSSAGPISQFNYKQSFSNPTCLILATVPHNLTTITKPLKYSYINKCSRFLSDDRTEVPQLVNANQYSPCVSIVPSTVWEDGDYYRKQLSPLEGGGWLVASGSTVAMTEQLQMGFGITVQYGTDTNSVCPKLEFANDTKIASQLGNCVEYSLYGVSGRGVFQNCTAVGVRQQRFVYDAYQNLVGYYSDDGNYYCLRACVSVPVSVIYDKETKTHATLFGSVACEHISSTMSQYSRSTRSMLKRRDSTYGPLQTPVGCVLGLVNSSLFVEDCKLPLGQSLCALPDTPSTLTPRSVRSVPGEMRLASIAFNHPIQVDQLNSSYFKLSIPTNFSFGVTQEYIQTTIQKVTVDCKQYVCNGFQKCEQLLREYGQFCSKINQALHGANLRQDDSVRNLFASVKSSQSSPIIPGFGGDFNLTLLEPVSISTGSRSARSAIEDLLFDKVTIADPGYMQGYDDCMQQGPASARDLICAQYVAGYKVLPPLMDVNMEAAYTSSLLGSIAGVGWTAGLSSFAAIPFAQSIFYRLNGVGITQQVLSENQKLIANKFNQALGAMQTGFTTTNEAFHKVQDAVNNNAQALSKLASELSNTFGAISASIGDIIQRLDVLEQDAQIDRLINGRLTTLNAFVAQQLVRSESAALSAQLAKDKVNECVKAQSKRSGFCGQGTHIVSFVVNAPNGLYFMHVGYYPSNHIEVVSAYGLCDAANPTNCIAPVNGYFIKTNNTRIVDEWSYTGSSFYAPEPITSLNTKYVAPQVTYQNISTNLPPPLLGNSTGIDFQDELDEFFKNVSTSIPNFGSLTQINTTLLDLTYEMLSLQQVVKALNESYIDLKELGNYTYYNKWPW

[6] = biological target: T3, MERS-CoV (NCoV/Novel coronavirus) Spike Protein fragment (RBD, aa 367-606, His Tag) (Sino 40071-V08B1) (MERS-CoV, UniProt K9N5Q8 367-606)
T3 sequence: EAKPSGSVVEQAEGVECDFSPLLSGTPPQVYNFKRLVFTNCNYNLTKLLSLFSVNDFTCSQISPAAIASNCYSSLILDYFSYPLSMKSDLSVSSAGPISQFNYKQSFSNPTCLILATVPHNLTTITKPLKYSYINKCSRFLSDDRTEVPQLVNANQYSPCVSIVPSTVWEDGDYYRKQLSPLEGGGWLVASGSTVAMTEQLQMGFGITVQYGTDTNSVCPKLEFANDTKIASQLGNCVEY

Row | Binder | MFI [1] | MFI [2] | MFI [3] | MFI [4] | MFI [5] | MFI [6]
1 | B1 | 33100 MFI | 32400 MFI | – | – | – | –
2 | B2 | 30800 MFI | 30400 MFI | – | – | – | –
3 | B3 | 32400 MFI | 31800 MFI | 21 MFI | – | – | –
4 | B4 | 30000 MFI | 28700 MFI | – | – | – | –
5 | B5 | 30200 MFI | 28300 MFI | – | – | – | –
6 | B6 | 23000 MFI | 23300 MFI | 24 MFI | – | – | –
7 | B7 | 22300 MFI | 19400 MFI | 19 MFI | 19 MFI | 19 MFI | 23 MFI
8 | B8 | 22600 MFI | 18700 MFI | – | – | – | –
9 | B9 | 29600 MFI | 27100 MFI | – | – | – | –
10 | B10 | 35600 MFI | 35900 MFI | 21 MFI | 18 MFI | 15 MFI | 25 MFI
11 | B11 | 28700 MFI | 29600 MFI | – | – | – | –
12 | B12 | – | – | 18 MFI | – | – | –
13 | B13 | 31800 MFI | 31300 MFI | – | – | – | –
14 | B14 | 31200 MFI | 30800 MFI | – | – | – | –
